Measured values: US20190282616A1, “MACROPHAGES REDIRECT PHAGOCYTOSIS BY NON-PROFESSIONAL PHAGOCYTES AND INFLUENCE INFLAMMATION” (University of Virginia Patent Foundation, priority 2016, published 2019)

Experiments:
IGF-1 in BAL fluid = assay: In vivo cytokine administration: IGF-1 in BAL fluid; details: 1 μg recombinant mouse cytokine intranasally for two consecutive days
Description: Mice were administered intranasally with 1 μg of recombinant mouse IL-4, IL-5, or IL-13 (eBiosciences), 1×10^6 apoptotic Jurkat cells, or PBS as control, for two consecutive days. On the third day, BAL fluid was recovered and centrifuged; the supernatant was stored at −80° C. for subsequent cytokine analysis. IL-4, IL-5, IL-6, and CCL-11/Eotaxin-1 in the BAL fluid of mice that were sensitized with HDM (regimen #1) were quantified by a multiplex Luminex performed by the University of Virginia Flow Cytometry Core Facility. Secretion of IGF-1 from J774 cells, peritoneal macrophages, and BAL fluids, as well as TSLP from BAL fluids, were measured by ELISA (R&D Systems).

LR73 cells = assay: In vitro engulfment assay: apoptotic thymocyte uptake by LR73 cells; assay type: cell-based, hamster; details: soluble mediator alone; IGF-I at concentrations reported in serum (100-600 ng/mL); other factors over a range of concentrations
Description: LR73, SVEC-40, BEAS-2B, and 16HBE14o-cells were seeded in a 24 well plate. Thymocytes were isolated from 4-6 week old mice and induced to undergo apoptosis with dexamethasone. Thymocytes or prepared microvesicles were then stained with either CypHer5E (GE Healthcare, PA15401) or TAMRA (Invitrogen, C-1171). LR73 and SVEC-40 cells were incubated with apoptotic thymocytes at a 1:10 phagocyte to target ratio, BEAS-2B at a 1:5 phagocyte to target ratio, and 16HBE14o—at a 1:20 phagocyte to target ratio for 2 hours. Mouse IGF-I (Sigma-Aldrich), human IGF-I (Sigma-Aldrich), human IGF-II (Sigma-Aldrich) were added to the phagocytes at the same time as addition of apoptotic targets. For IGFBP3 studies, IGFBP3 (Sigma-Aldrich) was added to media or supernatant from J774 cells for one hour to allow IGFBP3 to bind to any available IGF-I, then the mix is added to phagocytes along with apoptotic targets. […] Targets were then washed off three times with PBS, and the cells were dissociated from the plate with trypsin and the engulfment assessed by flow cytometry.

[1] = system: IGF-1R, Akt and Erk1/2 phosphorylation in LR73 cells; assay: Immunoblotting of signaling in LR73 cells; assay type: cell-based, hamster; details: serum-starved LR73 cells, 100 ng/mL growth factor
Description: LR73, J774, or BEAS-2B cells were seeded in a 60 mm dish at a concentration of 5×10^5. […] Cells were lysed in RIPA buffer and used in Western blots. The blots were probed for phospho-Erk1/2 (Cell Signaling Technology, #4370), phospho-Akt (Cell Signaling Technology, #4060), phospho-IGF-1R (Cell Signaling, #3024), total Erk2 (Santa Cruz Biotechnology, #sc-154-G), total Akt (Cell Signaling Technology, #4691), total IGF-1R (Cell Signaling, #9750), and anti-B-actin-HRP (Sigma-Aldrich, #A3854) followed by chemiluminescence detection.

Molecule | IGF-1 in bronchoalveolar lavage (BAL) fluid (IGF-1 in BAL fluid) | apoptotic cell uptake (engulfment) by LR73 cells (LR73 cells) | early downstream signaling events (Erk1/2 phosphorylation) [1]
IL-5: cytokine; recombinant mouse IL-5 (eBiosciences) (protein, UniProt P04401 21-133, looked up) Interleukin-5: MEIPMSTVVKETLTQLSAHRALLTSNETMRLPVPTHKNHQLCIGEIFQGLDILKNQTVRGGTVEMLFQNLSLIKKYIDRQKEKCGEERRRTRQFLDYLQEFLGVMSTEWAMEG | but not IL-5, induced IGF-1 production |  | 
PDGF-BB: growth factor of the tested panel of soluble mediators (protein, UniProt P01127 82-190, looked up, homodimer, growth factor of the tested panel of soluble mediators) Platelet-derived growth …: SLGSLTIAEPAMIAECKTRTEVFEISRRLIDRTNANFLVWPPCVEVQRCSGCCNNRNVQCRPTQVQLRPVQVRKIEIVRKKPIFKKATVTLEDHLACKCETVAAARPVT |  | did not alter engulfment | elicited early downstream signaling events
IL-13: cytokine; recombinant mouse IL-13 (eBiosciences) (protein, UniProt P20109 19-131, looked up) Interleukin-13: APGPVPRSVSLPLTLKELIEELSNITQDQTPLCNGSMVWSVDLAAGGFCVALDSLTNISNCNAIYRTQRILHGLCNRKAPTTVSSLPDTKIEVAHFITKLLSYTKQLFRHGPF | induced IGF-1 production |  | 
